Where a chain is given by its changes, count along the chain named.
B1: Mutation 1-23 (antibody, V domains shown)
VH: EVQLQQSGAELVKPGASVKLSCTASGFNIKDYYMHWMKQRTEQGLDWIGRIDPEDGETKYAPEFQGKATITADTSSNTAYLQLSTLTSEDTAVYYCARYYSSYIPFVYWGQGTLVTASA
VL: DVVMTQTPLSLSVSLGDQASISCRSSQSILYSNRHTYLHWYLQKPGQSPKLLIFQISNRFSGVPDRFSGSGSGTDFTLKINRVEAEDLGVYFCSQSTHIPYTFGSGTKLEIKR
notes: built as for Mutation 1
B2: Mutation 1-14 (antibody, V domains shown)
VH: B1 VH with Y33F, G56A
VL: B1 VL with I29L, Y101F
notes: built as for Mutation 1
B3: Mutation 1-6 (antibody, V domains shown)
VH: B1 VH with Y33F, I104V
VL: B1 VL with I56V
notes: built as for Mutation 1
B4: Mutation 1-18 (antibody, V domains shown)
VH: B1 VH with Y33F, G56A
VL: B1 VL with I99L, Y101F
notes: built as for Mutation 1
B5: Mutation 1-37 (antibody, V domains shown)
VH: B1 VH with Y33F, I104V
VL: B1 VL with I56V, I99L
notes: built as for Mutation 1
B6: Mutation 1-52 (antibody, V domains shown)
VH: B1 VH with Y33F, G56A, K59R, I104V
VL: B1 VL with I29L, I56V, I99L, Y101F
notes: built as for Mutation 1
B7: Mutation 1-38 (antibody, V domains shown)
VH: B1 VH with G56A
VL: B1 VL with I29L, L30I, Y101F
notes: built as for Mutation 1
B8: Mutation 1-11 (antibody, V domains shown)
VH: B1 VH with G56A, I104V
VL: B1 VL with I56V, Y101F
notes: built as for Mutation 1
B9: Mutation 1-24 (antibody, V domains shown)
VH: B1 VH with I29L, Y33F, G56A, K59R, I104V
VL: B1 VL with I29L, I56V, Y101F
notes: built as for Mutation 1
B10: Mutation 1-44 (antibody, V domains shown)
VH: B1 VH with Y33F, G56A, I104L
VL: B1 VL with I56L, I99L, Y101F
notes: built as for Mutation 1
B11: Mutation 1-31 (antibody, V domains shown)
VH: B1 VH with G56A, I104V
VL: B1 VL with I56V
notes: built as for Mutation 1
B12: Mutation 1-34 (antibody, V domains shown)
VH: B1 VH with Y33F
VL: B1 VL with I29L
notes: built as for Mutation 1
B13: Mutation 1-4 (antibody, V domains shown)
VH: B1 VH with I29L, Y33F, G56A, I104V
VL: B1 VL with I29L, I56V, I99L, Y101F
notes: built as for Mutation 1
B14: Mutation 1-50 (antibody, V domains shown)
VH: B1 VH with I29L, Y33F, G56A
VL: B1 VL with Y101F
notes: built as for Mutation 1
B15: Mutation 1-39 (antibody, V domains shown)
VH: B1 VH with I29L, Y33F, K59R, I104V
VL: B1 VL with I29L, L30I, I56V, I99L
notes: built as for Mutation 1
B16: Mutation 1-47 (antibody, V domains shown)
VH: B1 VH with I29L, G56A, I104V
VL: B1 VL with I29L, I56V, I99L, Y101F
notes: built as for Mutation 1
B17: Mutation 1-33 (antibody, V domains shown)
VH: B1 VH with I29L, G56A, I104V
VL: B1 VL with I29L, L30I, I56V, Y101F
notes: built as for Mutation 1
B18: Mutation 1-28 (antibody, V domains shown)
VH: B1 VH with I29L, Y33F, G56A, I104L
VL: B1 VL with I29L, L30I, I56L, I99L, Y101F
notes: built as for Mutation 1
B19: Mutation 1-51 (antibody, V domains shown)
VH: B1 VH with I29L, K59R, I104L
VL: B1 VL with I29L, L30I, I56L, I99L
notes: built as for Mutation 1
B20: Mutation 1-48 (antibody, V domains shown)
VH: B1 VH with Y33F, K59R
VL: B1 VL with L30I, I99L
notes: built as for Mutation 1
B21: Mutation 1-29 (antibody, V domains shown)
VH: B1 VH with I29L, I104V
VL: B1 VL with I29L, I56V, I99L
notes: built as for Mutation 1
B22: Mutation 1-35 (antibody, V domains shown)
VH: B1 VH with G56A, K59R, I104L
VL: B1 VL with L30I, I56L, I99L
notes: built as for Mutation 1
B23: Mutation 1-30 (antibody, V domains shown)
VH: B1 VH with Y33F, G56A, K59R, I104L
VL: B1 VL with L30I, I56L, Y101F
notes: built as for Mutation 1
B24: Mutation 1-27 (antibody, V domains shown)
VH: B1 VH with G56A, K59R
VL: B1 VL with I29L, L30I
notes: built as for Mutation 1
B25: Mutation 1-46 (antibody, V domains shown)
VH: B1 VH with I29L, Y33F, G56A, K59R
VL: B1 VL with I29L, L30I, Y101F
notes: built as for Mutation 1
B26: Mutation 1-36 (antibody, V domains shown)
VH: B1 VH with I29L, K59R, I104L
VL: B1 VL with L30I, I56L
notes: built as for Mutation 1
B27: Mutation 1-42 (antibody, V domains shown)
VH: B1 VH with I29L, Y33F, I104L
VL: B1 VL with I29L, I56L, I99L
notes: built as for Mutation 1
B28: Mutation 1-43 (antibody, V domains shown)
VH: B1 VH with I29L, G56A, K59R, I104V
VL: B1 VL with L30I, I56V
notes: built as for Mutation 1
B29: Mutation 1-45 (antibody, V domains shown)
VH: B1 VH with I104V
VL: B1 VL with I29L, L30I, I56V, Y101F
notes: built as for Mutation 1
B30: Mutation 1-41 (antibody, V domains shown)
VH: B1 VH with K59R
VL: B1 VL
notes: built as for Mutation 1
B31: Mutation 1-53 (antibody, V domains shown)
VH: B1 VH with G56A, I104L
VL: B1 VL with L30I, I56L
notes: built as for Mutation 1
B32: Mutation 1-40 (antibody, V domains shown)
VH: B1 VH with I29L
VL: B1 VL with I29L, I99L, Y101F
notes: built as for Mutation 1
B33: Mutation 1-32 (antibody, V domains shown)
VH: B1 VH with I29L, Y33F, K59R
VL: B1 VL with I99L, Y101F
notes: built as for Mutation 1
B34: Mutation 1-49 (antibody, V domains shown)
VH: B1 VH with G56A, K59R, I104L
VL: B1 VL with I56L
notes: built as for Mutation 1
B35: WT 1-50 (antibody, V domains shown)
VH: B1 VH with I29L, D31E, D52E, K59R, S101T, I104L
VL: B1 VL with I29L, L30I, R34K, I56L, N58Q, Q95N, I99L
notes: Built as for Mutation 1
B36: WT 1-3 (antibody, V domains shown)
VH: B1 VH with D31E, D52E, S101T, I104L
VL: B1 VL with I29L, R34K, I56L, N58Q, Q95N
notes: built as for Mutation 1
B37: WT 1-14 (antibody, V domains shown)
VH: B1 VH with D31E, Y33F, D52E, G56A, S101T
VL: B1 VL with I29L, R34K, N58Q, Q95N, Y101F
notes: built as for Mutation 1

Biological target: T1, CTNI quality control recombinant protein (PK2-CTNI-1, 170120, produced by the applicant) (human, UniProt P19429 2-210, limits assumed)
T1 construct: also called cardiac troponin I
Assay: AMC sensor kinetics, antibody captured, cTnI analyte
Method: Using the AMC sensor, the purified antibody was diluted with PBST to 10 μg/ml, and the CTNI quality control recombinant protein (PK2-CTNI-1, 170120, produced by the applicant) was serially diluted with PBST to 400 nmol/ml, 200 nmol/ml, 100 nmol/ml, 50 nmol/ml, 25 nmol/ml, 12.5 nmol/ml, 6.25 nmol/ml, and 0 nmol/ml.

T1 sequence (P19429 2-210 limits assumed): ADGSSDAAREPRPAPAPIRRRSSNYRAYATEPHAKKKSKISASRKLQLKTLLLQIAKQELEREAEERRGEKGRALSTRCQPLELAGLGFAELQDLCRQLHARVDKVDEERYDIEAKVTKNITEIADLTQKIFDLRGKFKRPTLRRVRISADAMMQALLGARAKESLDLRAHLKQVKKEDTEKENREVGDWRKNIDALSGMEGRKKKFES

Kd [nM] | koff [s⁻¹] | kon [M⁻¹ s⁻¹] | Binder
0.968 | 0.000673 | 695000 | B1
0.415 | 0.000279 | 673000 | B2
0.734 | 0.000266 | 362000 | B3
0.68 | 0.000282 | 415000 | B4
0.667 | 0.000267 | 400000 | B5
0.941 | 0.000229 | 243000 | B6
0.24 | 0.000103 | 431000 | B7
0.606 | 0.000443 | 731000 | B8
0.408 | 0.000259 | 635000 | B9
0.865 | 0.000464 | 537000 | B10
0.795 | 0.000301 | 378000 | B11
1.41 | 0.000598 | 424000 | B12
0.963 | 0.00023 | 239000 | B13
0.386 | 5.48e-05 | 142000 | B14
0.756 | 0.000469 | 620000 | B15
0.81 | 0.000507 | 626000 | B16
0.986 | 0.000881 | 894000 | B17

Kd [nM] | koff [s⁻¹] | kon [M⁻¹ s⁻¹] | Binder
0.189 | 0.000101 | 536000 | B18
0.765 | 7.54e-05 | 98600 | B19
0.956 | 0.00065 | 680000 | B20
0.698 | 0.000115 | 165000 | B21
0.574 | 0.000276 | 480000 | B22
0.669 | 0.000362 | 541000 | B23
0.85 | 0.000844 | 993000 | B24
0.723 | 0.00027 | 373000 | B25
0.809 | 0.000452 | 559000 | B26
0.347 | 0.00018 | 520000 | B27
0.651 | 7.75e-05 | 119000 | B28
0.168 | 3.24e-05 | 193000 | B29
0.723 | 0.000393 | 544000 | B30
0.721 | 0.000243 | 337000 | B31
0.818 | 0.000164 | 200000 | B32
0.509 | 8.4e-05 | 165000 | B33
0.538 | 0.000298 | 553000 | B34

Biological target: T1, CTNI quality control recombinant …
Assay: as above
Remark: another data set of the same source

Kd [nM] | koff [s⁻¹] | kon [M⁻¹ s⁻¹] | Binder
0.702 | 0.000489 | 696000 | B35
0.549 | 0.000348 | 633000 | B36
0.749 | 0.000398 | 532000 | B37

— patent US20210340231A1 (FAPON BIOTECH, published 2021)
